Experimental data taken from patent publication US20120165503A1 (Merck Sharp & Dohme, published 2012).
*1 amine or outer side, *2 acyl side, *3 side chain or, on linkers, in order; H or OH if unused. Where no end group is shown, it is not given here. Side-chain parts run from the residue outwards. [ ]: non-standard residue; d: D form. The star is where a group is joined. γGlu = O=C(O)[C@H](CCC(=O)[*:2])N[*:1]; Stearoyl = CCCCCCCCCCCCCCCCCC(=O)*; Palmitoyl = CCCCCCCCCCCCCCCC(=O)*; Myristoyl = CCCCCCCCCCCCCC(=O)*; Aib = CC(C)(N)C(=O)O

Assays:
Assay in all cases: cell-based or functional assay
[1] = biological target: T1, human GLP-1 receptor (human, UniProt P43220 24-463)
[2] = biological target: T2, human glucagon receptor (human, UniProt P47871 26-477)
[3] = biological target: T1, human GLP-1 receptor; remark: listed apart in the source
[4] = biological target: T2, human glucagon receptor; remark: listed apart in the source

T2 sequence (P47871 26-477): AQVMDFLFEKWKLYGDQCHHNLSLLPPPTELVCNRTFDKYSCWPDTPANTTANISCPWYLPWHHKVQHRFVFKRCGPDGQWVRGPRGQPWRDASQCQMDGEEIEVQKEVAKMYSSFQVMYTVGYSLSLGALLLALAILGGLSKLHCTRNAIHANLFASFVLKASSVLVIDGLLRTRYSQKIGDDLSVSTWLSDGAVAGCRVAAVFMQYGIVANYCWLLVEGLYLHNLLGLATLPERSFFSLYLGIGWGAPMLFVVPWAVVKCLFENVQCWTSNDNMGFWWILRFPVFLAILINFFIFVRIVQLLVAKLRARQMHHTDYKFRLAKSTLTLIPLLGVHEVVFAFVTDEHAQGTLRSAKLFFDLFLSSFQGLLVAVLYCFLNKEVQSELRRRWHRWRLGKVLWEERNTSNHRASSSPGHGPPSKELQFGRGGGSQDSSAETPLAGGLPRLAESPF

| Binder | hGLP-1R + 20% Plasma EC50 [1] [nM] | hGCGR + 20% plasma EC50 [2] [nM] | hGLP-1R EC50 [3] [nM] | hGCGR EC50 [4] [pM] |
| --- | --- | --- | --- | --- |
| H[dS]QGTFTSDK([γGlu-Palmitoyl])SKYLDERRAQDFVQWLMNTK[γGlu]-NH2 (N-terminus assumed; SMILES CCCCCCCCCCCCCCCC(=O)N[C@@H](CCC(=O)NCCCC[C@H](NC(=O)[C@H](CC(=O)O)NC(=O)[C@H](CO)NC(=O)[C@@H](NC(=O)[C@H](Cc1ccccc1)NC(=O)[C@@H](NC(=O)CNC(=O)[C@H](CCC(N)=O)NC(=O)[C@@H](CO)NC(=O)[C@@H](N)Cc1c[nH]cn1)[C@@H](C)O)[C@@H](C)O)C(=O)N[C@@H](CO)C(=O)N[C@@H](CCCCN)C(=O)N[C@@H](Cc1ccc(O)cc1)C(=O)N[C@@H](CC(C)C)C(=O)N[C@@H](CC(=O)O)C(=O)N[C@@H](CCC(=O)O)C(=O)N[C@@H](CCCNC(=N)N)C(=O)N[C@@H](CCCNC(=N)N)C(=O)N[C@@H](C)C(=O)N[C@@H](CCC(N)=O)C(=O)N[C@@H](CC(=O)O)C(=O)N[C@@H](Cc1ccccc1)C(=O)N[C@H](C(=O)N[C@@H](CCC(N)=O)C(=O)N[C@@H](Cc1c[nH]c2ccccc12)C(=O)N[C@@H](CC(C)C)C(=O)N[C@@H](CCSC)C(=O)N[C@@H](CC(N)=O)C(=O)N[C@H](C(=O)N[C@@H](CCCCN)C(=O)N[C@@H](CCC(N)=O)C(=O)O)[C@@H](C)O)C(C)C)C(=O)O) [OXM414] | 0.07 | 0.15 | 0.007 | 5 |
| H[dS]QGTFTSDK([γGlu-γGlu-Stearoyl])SKYLD[Aib]RRAQDFVQWLMNTK[γGlu]-NH2 (N-terminus assumed; SMILES CCCCCCCCCCCCCCCCCC(=O)N[C@@H](CCC(=O)N[C@@H](CCC(=O)NCCCC[C@H](NC(=O)[C@H](CC(=O)O)NC(=O)[C@H](CO)NC(=O)[C@@H](NC(=O)[C@H](Cc1ccccc1)NC(=O)[C@@H](NC(=O)CNC(=O)[C@H](CCC(N)=O)NC(=O)[C@@H](CO)NC(=O)[C@@H](N)Cc1c[nH]cn1)[C@@H](C)O)[C@@H](C)O)C(=O)N[C@@H](CO)C(=O)N[C@@H](CCCCN)C(=O)N[C@@H](Cc1ccc(O)cc1)C(=O)N[C@@H](CC(C)C)C(=O)N[C@@H](CC(=O)O)C(=O)NC(C)(C)C(=O)N[C@@H](CCCNC(=N)N)C(=O)N[C@@H](CCCNC(=N)N)C(=O)N[C@@H](C)C(=O)N[C@@H](CCC(N)=O)C(=O)N[C@@H](CC(=O)O)C(=O)N[C@@H](Cc1ccccc1)C(=O)N[C@H](C(=O)N[C@@H](CCC(N)=O)C(=O)N[C@@H](Cc1c[nH]c2ccccc12)C(=O)N[C@@H](CC(C)C)C(=O)N[C@@H](CCSC)C(=O)N[C@@H](CC(N)=O)C(=O)N[C@H](C(=O)N[C@@H](CCCCN)C(=O)N[C@@H](CCC(N)=O)C(=O)O)[C@@H](C)O)C(C)C)C(=O)O)C(=O)O) [MM132] | – | – | 0.024 | 4 |
| H[dS]QGTFTSDK([γGlu-γGlu-Myristoyl])SKYLD[Aib]RRAQDFVQWLMNTK[γGlu]-NH2 (N-terminus assumed; SMILES CCCCCCCCCCCCCC(=O)N[C@@H](CCC(=O)N[C@@H](CCC(=O)NCCCC[C@H](NC(=O)[C@H](CC(=O)O)NC(=O)[C@H](CO)NC(=O)[C@@H](NC(=O)[C@H](Cc1ccccc1)NC(=O)[C@@H](NC(=O)CNC(=O)[C@H](CCC(N)=O)NC(=O)[C@@H](CO)NC(=O)[C@@H](N)Cc1c[nH]cn1)[C@@H](C)O)[C@@H](C)O)C(=O)N[C@@H](CO)C(=O)N[C@@H](CCCCN)C(=O)N[C@@H](Cc1ccc(O)cc1)C(=O)N[C@@H](CC(C)C)C(=O)N[C@@H](CC(=O)O)C(=O)NC(C)(C)C(=O)N[C@@H](CCCNC(=N)N)C(=O)N[C@@H](CCCNC(=N)N)C(=O)N[C@@H](C)C(=O)N[C@@H](CCC(N)=O)C(=O)N[C@@H](CC(=O)O)C(=O)N[C@@H](Cc1ccccc1)C(=O)N[C@H](C(=O)N[C@@H](CCC(N)=O)C(=O)N[C@@H](Cc1c[nH]c2ccccc12)C(=O)N[C@@H](CC(C)C)C(=O)N[C@@H](CCSC)C(=O)N[C@@H](CC(N)=O)C(=O)N[C@H](C(=O)N[C@@H](CCCCN)C(=O)N[C@@H](CCC(N)=O)C(=O)O)[C@@H](C)O)C(C)C)C(=O)O)C(=O)O) [MM121] | – | – | 0.131 | 6 |
| H[dS]QGTFTSDK([γGlu-γGlu-Palmitoyl])SKYLD[Aib]RAAQDFVQWLMDTK[γGlu]-NH2 (N-terminus assumed; SMILES CCCCCCCCCCCCCCCC(=O)N[C@@H](CCC(=O)N[C@@H](CCC(=O)NCCCC[C@H](NC(=O)[C@H](CC(=O)O)NC(=O)[C@H](CO)NC(=O)[C@@H](NC(=O)[C@H](Cc1ccccc1)NC(=O)[C@@H](NC(=O)CNC(=O)[C@H](CCC(N)=O)NC(=O)[C@@H](CO)NC(=O)[C@@H](N)Cc1c[nH]cn1)[C@@H](C)O)[C@@H](C)O)C(=O)N[C@@H](CO)C(=O)N[C@@H](CCCCN)C(=O)N[C@@H](Cc1ccc(O)cc1)C(=O)N[C@@H](CC(C)C)C(=O)N[C@@H](CC(=O)O)C(=O)NC(C)(C)C(=O)N[C@@H](CCCNC(=N)N)C(=O)N[C@@H](C)C(=O)N[C@@H](C)C(=O)N[C@@H](CCC(N)=O)C(=O)N[C@@H](CC(=O)O)C(=O)N[C@@H](Cc1ccccc1)C(=O)N[C@H](C(=O)N[C@@H](CCC(N)=O)C(=O)N[C@@H](Cc1c[nH]c2ccccc12)C(=O)N[C@@H](CC(C)C)C(=O)N[C@@H](CCSC)C(=O)N[C@@H](CC(=O)O)C(=O)N[C@H](C(=O)N[C@@H](CCCCN)C(=O)N[C@@H](CCC(N)=O)C(=O)O)[C@@H](C)O)C(C)C)C(=O)O)C(=O)O) [MM127] | – | – | 0.004 | 4 |
| H[dS]QGTFTSDK([dE-dE-Palmitoyl])SKYLDERRAQDFVQWLMNTK[γGlu]-NH2 [MM117] | – | – | 0.93 | 250 |
| H[dS]QGTFTSDK([homocysteic acid-homocysteic acid-Palmitoyl])SKYLDERRAQDFVQWLMNTK[γGlu]-NH2 [MM116] | – | – | 0.132 | 850 |
| H[dS]QGTFTSDK([Arg-Arg-Palmitoyl])SKYLDERRAQDFVQWLMNTK[γGlu]-NH2 (N-terminus assumed; SMILES CCCCCCCCCCCCCCCC(=O)N[C@@H](CCCNC(=N)N)C(=O)N[C@@H](CCCNC(=N)N)C(=O)NCCCC[C@H](NC(=O)[C@H](CC(=O)O)NC(=O)[C@H](CO)NC(=O)[C@@H](NC(=O)[C@H](Cc1ccccc1)NC(=O)[C@@H](NC(=O)CNC(=O)[C@H](CCC(N)=O)NC(=O)[C@@H](CO)NC(=O)[C@@H](N)Cc1c[nH]cn1)[C@@H](C)O)[C@@H](C)O)C(=O)N[C@@H](CO)C(=O)N[C@@H](CCCCN)C(=O)N[C@@H](Cc1ccc(O)cc1)C(=O)N[C@@H](CC(C)C)C(=O)N[C@@H](CC(=O)O)C(=O)N[C@@H](CCC(=O)O)C(=O)N[C@@H](CCCNC(=N)N)C(=O)N[C@@H](CCCNC(=N)N)C(=O)N[C@@H](C)C(=O)N[C@@H](CCC(N)=O)C(=O)N[C@@H](CC(=O)O)C(=O)N[C@@H](Cc1ccccc1)C(=O)N[C@H](C(=O)N[C@@H](CCC(N)=O)C(=O)N[C@@H](Cc1c[nH]c2ccccc12)C(=O)N[C@@H](CC(C)C)C(=O)N[C@@H](CCSC)C(=O)N[C@@H](CC(N)=O)C(=O)N[C@H](C(=O)N[C@@H](CCCCN)C(=O)N[C@@H](CCC(N)=O)C(=O)O)[C@@H](C)O)C(C)C) [MM115] | – | – | 1.08 | 1310 |
